Assay [1] has as its target T1, cynomolgus IgE (recombinant chimaeric D12 variable region / cynomolgus IgE constant region) (cynomolgus monkey (constant region)).
T1 construct: also called cyno IgE; cynomolgus IgE (in house HEK-EBNA derived)
Put plainly: HTRF receptor-ligand competition, scFv titrated; Eu-cryptate cynomolgus IgE binding to human FcεRI-Fc; geomean. Here is the method:
(§1) Purified scFv were tested in a receptor-ligand binding HTRF® (Homogeneous Time-Resolved Fluorescence) assay format for inhibition of either human IgE (U266-derived [Ikeyama et. al. 1986. Molecular Immunology 23 (2); p159-167]) or cyno IgE (recombinant, see materials and methods) labelled with europium cryptate (CIS bio International 62EUSPEA), binding to human FcεR1-Fc (in house NS0 cell produced). Example scFv potency data is included in Table 5a
(§2) Purified scFv were tested in a receptor-ligand binding HTRF® (Homogeneous Time-Resolved Fluorescence) assay format for inhibition of either human IgE (U266-derived [Ikeyama et. al. 1986. Molecular Immunology 23 (2); p159-167]) or cyno IgE (recombinant, see materials and methods) labelled with europium cryptate (CIS bio International 62EUSPEA), binding to human FcεR1-Fc (in house NS0 cell produced).

Assay [2] has as its target human IgEλ (U266 derived) (human, UniProt P01854 1-546). Nature of the assay: HTRF receptor-ligand competition, scFv titrated; Eu-cryptate human IgE (U266) binding to human FcεRI-Fc; geomean. As to the method:
as §1, §2
(TR-FRET usually uses a lanthanide donor and a delayed reading to cut background.)

T1 sequence (heavy, as listed by the source limits assumed, chain 1 of 2): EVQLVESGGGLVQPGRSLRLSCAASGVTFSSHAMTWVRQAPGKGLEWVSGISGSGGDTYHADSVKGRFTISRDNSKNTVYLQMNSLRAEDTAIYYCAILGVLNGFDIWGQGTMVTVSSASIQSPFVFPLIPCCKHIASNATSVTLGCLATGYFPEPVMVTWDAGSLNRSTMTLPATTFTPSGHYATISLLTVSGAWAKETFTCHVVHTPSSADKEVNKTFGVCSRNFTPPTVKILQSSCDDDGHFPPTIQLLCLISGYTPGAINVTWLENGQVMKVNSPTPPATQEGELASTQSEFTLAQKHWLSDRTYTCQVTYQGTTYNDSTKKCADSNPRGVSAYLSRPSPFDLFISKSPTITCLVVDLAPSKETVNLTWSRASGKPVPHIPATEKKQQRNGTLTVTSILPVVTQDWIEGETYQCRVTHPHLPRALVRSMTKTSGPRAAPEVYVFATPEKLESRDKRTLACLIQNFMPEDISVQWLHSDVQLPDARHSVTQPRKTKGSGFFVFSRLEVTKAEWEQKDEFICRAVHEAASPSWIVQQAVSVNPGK
T1 sequence (light, as listed by the source limits assumed, chain 2 of 2): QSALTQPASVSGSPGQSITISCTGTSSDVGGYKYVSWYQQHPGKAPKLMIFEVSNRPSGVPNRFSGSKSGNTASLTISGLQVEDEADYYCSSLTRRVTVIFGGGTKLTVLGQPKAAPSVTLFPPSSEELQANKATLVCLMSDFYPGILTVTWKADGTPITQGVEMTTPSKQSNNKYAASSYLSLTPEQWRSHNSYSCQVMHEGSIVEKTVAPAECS
human IgEλ (U266 derived), sequence (P01854 whole entry): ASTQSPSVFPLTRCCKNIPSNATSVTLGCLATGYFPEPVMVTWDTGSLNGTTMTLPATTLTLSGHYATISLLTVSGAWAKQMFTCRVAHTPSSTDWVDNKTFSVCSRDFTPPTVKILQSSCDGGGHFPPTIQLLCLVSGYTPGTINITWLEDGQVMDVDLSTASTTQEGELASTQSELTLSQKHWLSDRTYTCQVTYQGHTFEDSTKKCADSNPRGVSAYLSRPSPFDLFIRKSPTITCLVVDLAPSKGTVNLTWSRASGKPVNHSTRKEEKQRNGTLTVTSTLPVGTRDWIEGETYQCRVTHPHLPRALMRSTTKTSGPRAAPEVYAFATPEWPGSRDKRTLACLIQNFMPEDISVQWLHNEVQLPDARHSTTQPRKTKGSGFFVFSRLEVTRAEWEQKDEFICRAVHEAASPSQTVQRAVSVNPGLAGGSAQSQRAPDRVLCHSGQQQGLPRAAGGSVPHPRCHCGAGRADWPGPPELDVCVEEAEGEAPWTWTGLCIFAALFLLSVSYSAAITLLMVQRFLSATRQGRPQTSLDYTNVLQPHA

B1: Antibody 8 (scFv) (scFv, V domains shown)
VH: EVQLLESGGGLVQPGGSLRLSCAAPGFTFSSYAMSWVRQAPGKGLEWVSAISGGSGGRTYYADSVKGRFTISRDNSKNTLYLQMNSLRAEDTAVYYCARHIAVAGTRGFDYWGRGTLVTVSS
VL: SYVLTQPPSVSVSPGQTASITCSGDKLGDTYASWYRQRSGQSPVLVIYQDDKRPSGIPERFSGSNSGNTATLTISGTHTMDEADYYCLAWDTRTSGAVFGGGTKLTVL
notes: purified scFv
In general, IC50 refers to the concentration at which inhibition is half-maximal. Regarding B1, the IC50 in assay [1] worked out at 438 nM; in assay [2], 8 nM.

B2: Antibody 29 (scFv) (scFv, V domains shown)
VH: EVQLLESGGGLVQPGGSLRLSCAASGFTFSSYAMSWVRQAPGKGLEWVSAISGSGGRTYYADSVKGRFTISRDNSKNTLYLQMNSLRAEDTAVYYCARLTFPAITRGFDYWGRGTLVTVSS
VL: SYVLTQPPSVSVSPGQTASITCSGDKLGDTYASWYRQRSGQSPVLVIYQDDKRPSGIPERFSGSNSGNTATLTISGTHTMDEADYYCLAWDTRTSGAVFGGGTKLTVL
notes: purified scFv
Molecule B2 displayed an IC50 in assay [2] of 6 nM.

B3: Antibody 30 (scFv) (scFv, V domains shown)
VH: EVQLLESGGGLVQPGGSLRLSCAASGFTFSSYAMSWVRQAPGKGLEWVSAISGSGGRTYYADSVKGRFTISRDNSKNTLYLQMNSLRAEDTAVYYCARLSYPAITRGFDYWGRGTLVTVSS
VL: SYVLTQPPSVSVSPGQTASITCSGDKLGDTYASWYRQRSGQSPVLVIYQDDKRPSGIPERFSGSNSGNTATLTISGTHTMDEADYYCLAWDTRTSGAVFGGGTKLTVL
notes: purified scFv
The molecule B3 gave a half-inhibitory concentration (IC50) in assay [2] of 4 nM.

B4: Antibody 28 (scFv) (scFv, V domains shown)
VH: EVQLLESGGGLVQPGGSLRLSCAASGFTFSSYAMSWVRQAPGKGLEWVSAISGSGGRTYYADSVKGRFTISRDNSKNTLYLQMNSLRAEDTAVYYCARLWFPAITRGFDYWGRGTLVTVSS
VL: SYVLTQPPSVSVSPGQTASITCSGDKLGDTYASWYRQRSGQSPVLVIYQDDKRPSGIPERFSGSNSGNTATLTISGTHTMDEADYYCLAWDTRTSGAVFGGGTKLTVL
notes: purified scFv
The molecule B4 had an IC50 in assay [2] of 4 nM.

B5: Antibody 21 (scFv) (scFv, V domains shown)
VH: EVQLLESGGGLVQPGGSLRLSCAASGFTFSSYAMSWVRQAPGKGLEWVSAISGSGGRTYYADSVKGRFTISRDNSKNTLYLQMNSLRAEDTAVYYCARLTFPAITRGFDYWGRGTLVTVSS
VL: SYVLTQPPSVSVSPGQTASITCSGDKLGDKYASWYRQRSGQSPVLVIYQDDKRPSGIPERFSGSNSGNTATLTISGTHTMDEADYYCLAWDTRTSGAVFGGGTKLTVL
notes: purified scFv
In turn, B5 had an IC50 in assay [2] of 4 nM.

B6: Antibody 31 (scFv) (scFv, V domains shown)
VH: EVQLLESGGGLVQPGGSLRLSCAASGFTFSSYAMSWVRQAPGKGLEWVSAISGSGGRTYYADSVKGRFTISRDNSKNTLYLQMNSLRAEDTAVYYCARLSYPAITRGFDYWGRGTLVTVSS
VL: SYVLTQPPSVSVSPGQTASITCSGDKLGDKYASWYRQRSGQSPVLVIYQDDKRPSGIPERFSGSNSGNTATLTISGTHTMDEADYYCLAWDTRTSGAVFGGGTKLTVL
notes: purified scFv
In turn, B6 displayed a half-inhibitory concentration (IC50) in assay [2] of 9 nM.

B7: Antibody 14 (scFv) (scFv, V domains shown)
VH: EVQLLESGGGLVQPGGSLRLSCAAPGFTFSSYPMSWVRQAPGKGLEWVSAISGSGGSTYYADSVKGRFTISRDNSKNTLYLQMNSLRAEDTAVYYCARHIAVAGTRGFDYWGRGTLVTVSS
VL: SFVLSQPPSVSVSPGQTASITCSGDKLGDTYASWYRQRSGQSPVLVIYQDDKRPSGIPERFSGSNSGNTATLTISGTHTMDEADYYCLAWDTRTSGAVFGGGTKLTVL
notes: purified scFv
In assay [2], B7 gave an IC50 of 7 nM.

B8: Antibody 20 (scFv) (scFv, V domains shown)
VH: EVQLLESGGGLVQPGGSLRLSCAASGFTFSSYAMSWVRQAPGKGLEWVSAISGSGGRTYYADSVKGRFTISRDNSKNTLYLQMNSLRAEDTAVYYCARSTYFASTRGFDYWGRGTLVTVSS
VL: SYVLTQPPSVSVSPGQTASITCSGDKLGDKYASWYRQRSGQSPVLVIYQDDKRPSGIPERFSGSNSGNTATLTISGTHTMDEADYYCLAWDTRTSGAVFGGGTKLTVL
notes: purified scFv
For B8, the half-maximal inhibitory concentration (IC50) in assay [2] worked out at 5 nM.

B9: Antibody 18 (scFv) (scFv, V domains shown)
VH: EVQLLESGGGLVQPGGSLRLSCAASGFTFSSYAVSWVRQAPGKGLEWVSAISGGSGGRTYYADSVKGRFTISRDNSKNTLYLQMNSLRAEDTAVYYCARHIAVAGTRGFDYWGRGTLVTVSS
VL: SYVLTQPPSVSVSPGQTASITCSGDKLGDTYASWYRQRSGQSPVLVIYQDDKRPSGIPERFSGSNSGDTATLTISGTRTMDEADYYCLAWDTRTSGAVFGGGTKLTVL
notes: purified scFv
Regarding B9, the 50% inhibitory concentration (IC50) in assay [1] came to 129 nM; in assay [2], 6 nM.

B10: Antibody 16 (scFv) (scFv, V domains shown)
VH: EVQLLESGGGLVQPGGSLRLSCAAPGFTFSSYAMSWVRQAPGKGLEWVSAISGGSGGRTYYADSVKGRFTISRDNSKNTLYLQMNSLRAEDTAVYYCARHIAVAGTRGFDYWGRGTLVTVSS
VL: SYVLTQPPSVSVSPGQTASITCSGDKLGDTYASWYRQRSGQSPVLVIYQDDKRPSGIPERFSGSNSGNTATLTISGTHTMDEADYYCLAWDTRTSGAVFGGGTELTVL
notes: purified scFv
Take B10: the values for the IC50 in assay [1] and in assay [2] were 280 nM and 10 nM, respectively.

B11: Antibody 6 (scFv) (scFv, V domains shown)
VH: EVQLLESGGGLVQPGGSLRLSCAASGFTFSSYAMSWVRQAPGKGLEWVSAISGSGGRTYYADSVKGRFTISKDNSKNTLYLQMNSLRAEDTAVYYCARHIAVAGTRGFDYWGRGALVTVSS
VL: SYVLTQPPSVSVSPGQTASITCSGDKLGDTYASWYRQRSGQSPVLVIYQDDKRPSGIPERFSGSNSGNTATLTISGTHTMDEADYYCLAWDTRTSGAVFGGGTKLTVL
notes: purified scFv
In assay [2], B11 gave an IC50 of 8 nM.

B12: Antibody 22 (scFv) (scFv, V domains shown)
VH: EVQLLESGGGLVQPGGSLRLSCAASGFTFSSYAMSWVRQAPGKGLEWVSAISGSGGRTYYADSAKGRFTISRDNSKNTLYLQMNGLRAEDTAVYYCARHIAVAGTRGFDYWGRGTLVTVSS
VL: SYVLTQPPSVSVSPGQTASITCSGDKLGDTYTSWYRQRSGQSPVLVIYQDDKRPSGVPERFSGSNSGNTATLTISGTHTMDEADYYCLAWDTRTSGAVFGGGTKLTVL
notes: purified scFv
On to B12, for which the IC50 in assay [2] was determined as 7 nM.

B13: Antibody 13 (scFv) (scFv, V domains shown)
VH: EVQLLESGGGLVQPGGSLRLSCAASGFTFSSYAMSWVRQAPGKGLEWVSAISGSGGRTYYADSVKGRFAVSRDNSKNTLYLQMNSLRAEDTAVYYCARHIAVAGTRGFDYWGRGTLVTVSS
VL: SYVLTQPPSVSVSPGQTASITCSGDKLGDTYASWYRQRSGQSPVLVIYQDDRRPSGIPERFSGSNSGNTATLTISGTHTMDEADYYCLAWDTRTSGAVFGGGTKLTVL
notes: purified scFv
In assay [2], B13 yielded an IC50 of 9 nM.

B14: Antibody 17 (scFv) (scFv, V domains shown)
VH: EVQLLESGGGLVQPGGSLRLSCAAPGFTFSSYAMSWVRQAPGKGLEWVSAISGGSGGRTYYADSVKGRFTISRDNSKNTLYLQMNSLRAEDTAVYYCARHIAVAGTRGFDYWGRGTLVTVSS
VL: SYVLTQPPSVSVSPGQTASITCSGDKLGDTYASWYRQRSGQSPVLVIYQDDKRPSGIPERFSGSNSGDTATLTISGTHTMDEADYYCLAWDTRTSGAVFGGGTKLTVL
notes: purified scFv
For the molecule B14, the IC50 in assay [1] was determined as 264 nM; in assay [2], 7 nM.

B15: Antibody 11 (scFv) (scFv, V domains shown)
VH: EVQLLESGGGLVQPGGSLRLSCAASGFTFSSYAMSWVRQAPGKGLEWVSAISGSGGRTYYADSVKGRFTISRDNSKNTLYLQMNSPRAEDTAVYYCARHIAVAGTRGFDYWGRGTLVAVSS
VL: SYVLTQPPSVSVSPGQTASIACSGDKLGDTYASWYRQRSGQSPVLVIYQDDKRPSGIPERFSGSNSGNTATLTISGTHTMDEADYYCLAWDTRTSGAVFGGGTKLTVL
notes: purified scFv
B15 showed a concentration for half-maximal inhibition (IC50) in assay [2] of 7 nM.

The values above are taken from patent US20110212084A1 (AstraZeneca / MedImmune, published 2011).
